Measured values reported in publication PMC2804221.

Columns and labels:
[1] = target: GLP-1 receptor V36A (human) (UniProt P43220); experiment: radioligand binding
[2] = target: GLP-1 receptor P90A (human) (UniProt P43220); experiment: radioligand binding
[3] = target: GLP-1 receptor L123A (human) (UniProt P43220); experiment: radioligand binding
[4] = target: GLP-1 receptor E127Q (human) (UniProt P43220); experiment: radioligand binding
[5] = target: GLP-1 receptor E68A (human) (UniProt P43220); experiment: radioligand binding
[6] = target: GLP-1 receptor L32A (human) (UniProt P43220); experiment: radioligand binding
[7] = target: GLP-1 receptor E128A (human) (UniProt P43220); experiment: radioligand binding
[8] = target: GLP-1 receptor R121A (human) (UniProt P43220); experiment: radioligand binding
[9] = target: GLP-1 receptor E128Q (human) (UniProt P43220); experiment: radioligand binding
[10] = target: Wild-type human GLP-1 receptor, full length (human) (UniProt P43220); experiment: radioligand binding
[11] = target: GLP-1 receptor E127A (human) (UniProt P43220); experiment: radioligand binding
[12] = target: GLP-1 receptor T35A (human) (UniProt P43220); experiment: radioligand binding
[13] = target: GLP-1 receptor V36A (human) (UniProt P43220)
[14] = target: GLP-1 receptor P90A (human) (UniProt P43220)
[15] = target: GLP-1 receptor L123A (human) (UniProt P43220)
[16] = target: GLP-1 receptor E127Q (human) (UniProt P43220)
[17] = target: GLP-1 receptor E68A (human) (UniProt P43220)
[18] = target: GLP-1 receptor L32A (human) (UniProt P43220)
[19] = target: GLP-1 receptor E128A (human) (UniProt P43220)
[20] = target: GLP-1 receptor R121A (human) (UniProt P43220)
[21] = target: GLP-1 receptor E128Q (human) (UniProt P43220)
[22] = target: Wild-type human GLP-1 receptor, full length (human) (UniProt P43220)
[23] = target: GLP-1 receptor E127A (human) (UniProt P43220)
[24] = target: GLP-1 receptor T35A (human) (UniProt P43220)

Chain of GLP-1 receptor V36A (human) (P43220 24-463 V36A): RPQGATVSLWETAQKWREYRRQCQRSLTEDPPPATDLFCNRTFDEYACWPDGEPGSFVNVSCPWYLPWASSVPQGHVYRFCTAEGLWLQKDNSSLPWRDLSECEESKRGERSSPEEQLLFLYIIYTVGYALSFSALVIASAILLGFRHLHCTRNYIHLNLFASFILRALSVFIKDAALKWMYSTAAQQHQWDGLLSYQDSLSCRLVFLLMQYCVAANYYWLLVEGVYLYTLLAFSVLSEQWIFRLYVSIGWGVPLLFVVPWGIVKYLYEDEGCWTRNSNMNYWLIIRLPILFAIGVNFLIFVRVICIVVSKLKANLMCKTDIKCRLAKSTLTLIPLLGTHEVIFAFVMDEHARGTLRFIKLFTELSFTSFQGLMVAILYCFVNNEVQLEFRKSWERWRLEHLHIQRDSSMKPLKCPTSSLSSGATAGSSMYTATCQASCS
Chain of GLP-1 receptor T35A (human) (P43220 24-463 T35A): as the sequence (P43220 24-463 V36A) above, with T12A, A13V counted along it
Chain of GLP-1 receptor E128Q (human) (P43220 24-463 E128Q): as the sequence (P43220 24-463 V36A) above, with A13V, E105Q counted along it
Chain of GLP-1 receptor R121A (human) (P43220 24-463 R121A): as the sequence (P43220 24-463 V36A) above, with A13V, R98A counted along it
Chain of GLP-1 receptor L123A (human) (P43220 24-463 L123A): as the sequence (P43220 24-463 V36A) above, with A13V, L100A counted along it
Chain of GLP-1 receptor P90A (human) (P43220 24-463 P90A): as the sequence (P43220 24-463 V36A) above, with A13V, P67A counted along it
Chain of GLP-1 receptor E128A (human) (P43220 24-463 E128A): as the sequence (P43220 24-463 V36A) above, with A13V, E105A counted along it
Chain of GLP-1 receptor E127A (human) (P43220 24-463 E127A): as the sequence (P43220 24-463 V36A) above, with A13V, E104A counted along it
Chain of GLP-1 receptor E127Q (human) (P43220 24-463 E127Q): as the sequence (P43220 24-463 V36A) above, with A13V, E104Q counted along it
Chain of GLP-1 receptor L32A (human) (P43220 24-463 L32A): as the sequence (P43220 24-463 V36A) above, with L9A, A13V counted along it
Chain of GLP-1 receptor E68A (human) (P43220 24-463 E68A): as the sequence (P43220 24-463 V36A) above, with A13V, E45A counted along it
Chain of Wild-type human GLP-1 receptor, full length (human) (P43220 24-463): as the sequence (P43220 24-463 V36A) above, with A13V counted along it

Exendin-4 (from UniProt P26349 48-87) (peptide)
IC50 [1]: 0.98 nM | IC50 [2]: 1.6 nM | IC50 [3]: 0.33 nM | IC50 [4]: 0.82 nM | IC50 [5]: 0.48 nM | IC50 [6]: 5.4 nM | IC50 [7]: 1.8 nM | IC50 [8]: 1.2 nM | IC50 [9]: 0.45 nM | IC50 [10]: 0.76 nM | IC50 [11]: 5.2 nM | IC50 [12]: 0.44 nM | EC50 of cAMP production, transiently transfected HEK293 cells [13]: 0.036 nM | EC50 of cAMP production, transiently transfected HEK293 cells [14]: 0.03 nM | EC50 of cAMP production, transiently transfected HEK293 cells [15]: 0.0095 nM | EC50 of cAMP production, transiently transfected HEK293 cells [16]: 0.0068 nM | EC50 of cAMP production, transiently transfected HEK293 cells [17]: 0.0095 nM | EC50 of cAMP production, transiently transfected HEK293 cells [18]: 0.052 nM | EC50 of cAMP production, transiently transfected HEK293 cells [19]: 0.025 nM | EC50 of cAMP production, transiently transfected HEK293 cells [20]: 0.044 nM | EC50 of cAMP production, transiently transfected HEK293 cells [21]: 0.008 nM | EC50 of cAMP production, transiently transfected HEK293 cells [22]: 0.0055 nM | EC50 of cAMP production, transiently transfected HEK293 cells [23]: 0.011 nM | EC50 of cAMP production, transiently transfected HEK293 cells [24]: 0.023 nM
